The target of assay [1] is T1, human amylin receptor (amylin 3(a) receptor: human calcitonin receptor with RAMP-3) (human, UniProt P30988 25-474; O60896 24-148, limits assumed).
T1 sequence (looked up) 1: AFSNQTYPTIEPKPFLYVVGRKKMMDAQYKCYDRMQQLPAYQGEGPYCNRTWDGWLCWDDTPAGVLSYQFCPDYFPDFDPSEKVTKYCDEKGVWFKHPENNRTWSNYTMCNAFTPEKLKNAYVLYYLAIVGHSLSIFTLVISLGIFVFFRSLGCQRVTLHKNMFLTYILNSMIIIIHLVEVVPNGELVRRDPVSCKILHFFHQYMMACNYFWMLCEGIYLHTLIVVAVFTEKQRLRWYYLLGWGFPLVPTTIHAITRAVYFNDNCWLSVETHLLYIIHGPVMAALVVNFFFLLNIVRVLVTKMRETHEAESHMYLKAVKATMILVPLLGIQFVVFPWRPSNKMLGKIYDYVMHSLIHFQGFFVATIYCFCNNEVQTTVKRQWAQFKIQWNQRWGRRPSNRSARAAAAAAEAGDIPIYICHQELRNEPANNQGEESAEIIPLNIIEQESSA
T1 sequence (looked up) 2: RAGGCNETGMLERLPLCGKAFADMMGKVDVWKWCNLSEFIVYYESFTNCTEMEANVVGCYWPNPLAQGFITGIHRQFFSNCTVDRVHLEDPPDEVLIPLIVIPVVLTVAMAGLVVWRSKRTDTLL
Kind of assay: cell-based or functional assay.

The target in assay [2] is T2, human calcitonin receptor (human, UniProt P30988 25-474).
T2 sequence (looked up): T1 sequence (looked up) 1
Briefly: cell-based or functional assay.

Numbered stars: 1 amine (or outer) side, 2 acyl side, 3 side chain; on linkers, the order of the positions; unused ones are H or OH. Bridge positions count the residues as written; N and C are the ends. Side chains are listed from the residue outwards. Ends that are not written are not given here. * marks the point of attachment. C20 diacid = O=C(O)CCCCCCCCCCCCCCCCCCC(=O)*; γGlu = O=C(O)[C@H](CCC(=O)[*:2])N[*:1]

B1: N^ε1-[(4S)-4-carboxy-4-[[(4S)-4-carboxy-4-(19-carboxynonadecanoylamino)butanoyl]amino]butanoyl]-[Glu14,Arg17,Pro21,Pro27,His34]-h-amylin (peptide)
peptide: K([γGlu-γGlu-C20 diacid])CNTATCATQRLAEFLRHSSPNFGAIPSSTNVGHNTY-NH2
modifications: disulfide 2-7; N-terminus assumed
SMILES: CC[C@H](C)[C@H](NC(=O)[C@H](C)NC(=O)CNC(=O)[C@H](Cc1ccccc1)NC(=O)[C@H](CC(N)=O)NC(=O)[C@@H]1CCCN1C(=O)[C@H](CO)NC(=O)[C@H](CO)NC(=O)[C@H](Cc1c[nH]cn1)NC(=O)[C@H](CCCNC(=N)N)NC(=O)[C@H](CC(C)C)NC(=O)[C@H](Cc1ccccc1)NC(=O)[C@H](CCC(=O)O)NC(=O)[C@H](C)NC(=O)[C@H](CC(C)C)NC(=O)[C@H](CCCNC(=N)N)NC(=O)[C@H](CCC(N)=O)NC(=O)[C@@H](NC(=O)[C@H](C)NC(=O)[C@@H]1CSSC[C@H](NC(=O)[C@@H](N)CCCCNC(=O)CC[C@H](NC(=O)CC[C@H](NC(=O)CCCCCCCCCCCCCCCCCCC(=O)O)C(=O)O)C(=O)O)C(=O)N[C@@H](CC(N)=O)C(=O)N[C@@H]([C@@H](C)O)C(=O)N[C@@H](C)C(=O)N[C@@H]([C@@H](C)O)C(=O)N1)[C@@H](C)O)C(=O)N1CCC[C@H]1C(=O)N[C@@H](CO)C(=O)N[C@@H](CO)C(=O)N[C@H](C(=O)N[C@@H](CC(N)=O)C(=O)N[C@H](C(=O)NCC(=O)N[C@@H](Cc1c[nH]cn1)C(=O)N[C@@H](CC(N)=O)C(=O)N[C@H](C(=O)N[C@@H](Cc1ccc(O)cc1)C(N)=O)[C@@H](C)O)C(C)C)[C@@H](C)O
notes: also called compound 87
For the molecule B1, in assay [1], the “hAmylin-R funct. EC50 (pM)” value amounted to 285 pM. Besides, in assay [2], the “Ratio hCT/hAmylin funct.” value is 3.8 ratio.

B2: N^ε1-[(4S)-4-carboxy-4-[[(4S)-4-carboxy-4-(19-carboxynonadecanoylamino)butanoyl]amino]butanoyl]-[Glu14,Arg17,Pro21,Pro27,Pro34,Phe37]-h-amylin (peptide)
peptide: K([γGlu-γGlu-C20 diacid])CNTATCATQRLAEFLRHSSPNFGAIPSSTNVGPNTF-NH2
modifications: disulfide 2-7; N-terminus assumed
SMILES: CC[C@H](C)[C@H](NC(=O)[C@H](C)NC(=O)CNC(=O)[C@H](Cc1ccccc1)NC(=O)[C@H](CC(N)=O)NC(=O)[C@@H]1CCCN1C(=O)[C@H](CO)NC(=O)[C@H](CO)NC(=O)[C@H](Cc1c[nH]cn1)NC(=O)[C@H](CCCNC(=N)N)NC(=O)[C@H](CC(C)C)NC(=O)[C@H](Cc1ccccc1)NC(=O)[C@H](CCC(=O)O)NC(=O)[C@H](C)NC(=O)[C@H](CC(C)C)NC(=O)[C@H](CCCNC(=N)N)NC(=O)[C@H](CCC(N)=O)NC(=O)[C@@H](NC(=O)[C@H](C)NC(=O)[C@@H]1CSSC[C@H](NC(=O)[C@@H](N)CCCCNC(=O)CC[C@H](NC(=O)CC[C@H](NC(=O)CCCCCCCCCCCCCCCCCCC(=O)O)C(=O)O)C(=O)O)C(=O)N[C@@H](CC(N)=O)C(=O)N[C@@H]([C@@H](C)O)C(=O)N[C@@H](C)C(=O)N[C@@H]([C@@H](C)O)C(=O)N1)[C@@H](C)O)C(=O)N1CCC[C@H]1C(=O)N[C@@H](CO)C(=O)N[C@@H](CO)C(=O)N[C@H](C(=O)N[C@@H](CC(N)=O)C(=O)N[C@H](C(=O)NCC(=O)N1CCC[C@H]1C(=O)N[C@@H](CC(N)=O)C(=O)N[C@H](C(=O)N[C@@H](Cc1ccccc1)C(N)=O)[C@@H](C)O)C(C)C)[C@@H](C)O
For the molecule B2, the “hAmylin-R funct. EC50 (pM)” value in assay [1] is 216 pM. In assay [2], the “Ratio hCT/hAmylin funct.” value was 9.9 ratio and the “hCTR funct. EC50 (pM)” value was determined as 2140 pM.
